In patent US20200407445A1 (ITEOS THERAPEUTICS, published 2020):
Each block holds one binder with its values, some of them ahead of it.

Assays:
[1] = biological target: T1, human TIGIT expressed on cells (human, UniProt Q495A1 22-244); assay: cell-based or functional assay
T1 sequence (looked up): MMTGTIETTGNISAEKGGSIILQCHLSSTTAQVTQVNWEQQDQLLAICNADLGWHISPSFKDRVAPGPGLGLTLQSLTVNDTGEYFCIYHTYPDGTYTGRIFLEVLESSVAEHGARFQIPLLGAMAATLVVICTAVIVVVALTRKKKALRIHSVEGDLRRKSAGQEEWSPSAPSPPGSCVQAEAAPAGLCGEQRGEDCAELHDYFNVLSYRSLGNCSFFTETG

[2] = biological target: T2, recombinant human TIGIT protein (construct not stated) (human, UniProt Q495A1 22-141, limits assumed); assay: Biacore T200, IgG captured by anti-human Fc, antigen in solution, 1:1 kinetic model
T2 construct: also called hTIGIT (Creative Biomart); recombinant TIGIT protein
T2 sequence (looked up): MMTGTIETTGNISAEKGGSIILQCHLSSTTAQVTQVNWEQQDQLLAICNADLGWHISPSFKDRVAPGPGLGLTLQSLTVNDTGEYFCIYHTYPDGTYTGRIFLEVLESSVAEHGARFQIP
Protocol: (§1) Biosensor analysis was conducted at 25° C. in a HBS-EP buffer system (10 mM HEPES pH 7.3, 150 mM NaCl, 3 mM EDTA, 0.05% Tween20) using Biacore T200 technology, CMS sensor chip (run at Novalix, France). The sample hotel was maintained at 8° C. Goat anti-human IgG capture antibody (Fcγ fragment specific, Jackson ImmunoResearch Laboratories) was immobilized (10000 RU) to both flow cells of the sensor chip using standard amine coupling chemistry. This surface type provided a format for reproducibly capturing fresh analysis antibody after each regeneration step. Flow cell 2 was used to analyse captured antibody while flow cell 1 was used as a reference flow cell. […] Two blank (buffer) injections also were run and used to assess and subtract system artefacts. The association (300 s) and dissociation (600 s) phases for all antigen concentrations were performed at a flow rate of 30 uL/min. The surface was regenerated with three sequential injections (15 s, 15 s and 60 s) of 10 mM glycine-HCl, pH 1.5. The obtained sensorgrams were fitted globally to a 1:1 model (assuming the same kinetic values for all applied concentrations).

[3] = biological target: T1, human TIGIT expressed on cells; assay: flow cytometry, competition with CD155-His (15 ug/ml) on Jurkat-hTIGIT
[4] = biological target: T1, human TIGIT expressed on cells; assay: flow cytometry, primary CD8+ T cells of cancer patients' PBMC, MFI
Protocol: Cells were distributed at 1×10^5 cells per well. […] Then, cells were washed and incubated with the following antibodies and life viability dye (LVD) mix: anti-CD4-PercP-Cy5.5 (clone A161A1, BioLegend 357414); anti-CD8-BV510 (clone SK1, BD Bioscience 563919) and LVD efluor 520 (eBioscience 65-0867-14). Cells were washed and fixed and surface staining was quantified using BD LSR Fortessa. Flow cytometry data was analysed using FlowJo V10.1. TIGIT MFI on gated LVD-TIGIT+CD8+ cells was used to calculate EC50 values.

[5] = biological target: T1, human TIGIT expressed on cells; assay: flow cytometry, primary CD8+ T cells of healthy human PBMC, MFI
Protocol: Isolated human PBMCs from healthy volunteers were analysed for binding by antagonist anti-TIGIT antibodies. Cells were distributed at 1×10⁵ cells per well. Cells were incubated with anti-CD16 (Clone 3G8, BioLegend 302002), CD32 (Clone FLI8.26, BD Bioscience 557333) and CD64 (BD Bioscience 555525) at room temperature for 10 min, and the indicated anti-human TIGIT antibody clones were directly added at a final concentration of 8; 4; 2; 1; 0.5; 0.25; 0.125; 0.062; 0.031; 0.016; 8×10⁻³ and 4×10⁻³ nM in FACS buffer and incubated for 20 min at 4° C. […] Then, cells were washed and incubated with the following antibodies and LVD mix: anti-CD4-PercP-Cy5.5 (clone A161A1, BioLegend 357414); anti-CD8-BV510 (clone SK1, BD Bioscience 563919) and LVD efluor 660 (eBioscience 65-0864-18).
The EC50 values for binding to CD8+ human primary T cells were calculated using the MFI signal on living TIGIT+CD8+ T cells.

[6] = biological target: T1, human TIGIT expressed on cells; assay: flow cytometry on Jurkat-hTIGIT
Protocol: (§2) Antibodies were incubated with the cells for 20 min at 4° C. in FACS buffer. […] Fluorescence intensity was analysed using LSR BD Fortessa and cell binding was recorded as the median fluorescence intensity of PE in cells expressing TIGIT at their surface.
(§3) The half-maximal concentration of binding (EC50) to Jurkat-hTIGIT was calculated using a four-variable curve-fit equation in Prism.

[7] = biological target: T1, human TIGIT expressed on cells; assay: cell-based or functional assay; remark: listed apart in the source
[8] = biological target: T1, human TIGIT expressed on cells; assay: flow cytometry on Jurkat-hTIGIT; remark: listed apart in the source
Protocol: as §2, §3

[9] = biological target: T1, human TIGIT expressed on cells; assay: flow cytometry, 100 nM Ab, Jurkat-hTIGIT vs untransfected
Protocol: (§4) Antibodies were incubated with the cells for 20 min at 4° C. in FACS buffer. […] Geometric mean fluorecence intensity was analysed using LSR BD Fortessa. Cell binding was recorded as the median florescence intensity of PE on the transfected line compared to the un-transfected line for each antibody (Table 3).

[10] = biological target: T1, human TIGIT expressed on cells; assay: cell-based or functional assay; remark: listed apart in the source
[11] = biological target: T3, mouse TIGIT expressed on cells (mouse, UniProt P86176 29-249); assay: flow cytometry, 100 nM Ab, Jurkat-mTIGIT vs untransfected
T3 construct: whole, on cells; on Jurkat cells engineered to express mouse TIGIT; also called mTIGIT; Jurkat-mTIGIT
T3 sequence (looked up): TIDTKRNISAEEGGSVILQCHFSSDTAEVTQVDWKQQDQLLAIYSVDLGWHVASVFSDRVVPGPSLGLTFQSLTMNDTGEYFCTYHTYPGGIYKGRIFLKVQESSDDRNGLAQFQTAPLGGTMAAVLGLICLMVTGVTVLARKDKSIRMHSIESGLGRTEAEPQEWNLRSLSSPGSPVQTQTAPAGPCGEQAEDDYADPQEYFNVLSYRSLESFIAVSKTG
Protocol: as §4

[12] = biological target: T3, mouse TIGIT expressed on cells; assay: cell-based or functional assay
Human TIGIT-Fc = biological target: T4, Human TIGIT-Fc (human, UniProt Q495A1 22-141); assay: ForteBio BLI, IgG KD, avid
T4 construct: bought (Creative Biomart); also called TIGIT-Fc antigen; TIGIT-Fc fusion antigen; not shown: Fc part
T4 sequence (looked up): T2 sequence (looked up)
Protocol: Briefly, ForteBio affinity measurements were performed by loading IgGs on-line onto AHQ sensors. Sensors were equilibrated off-line in assay buffer for 30 min and then monitored on-line for 60 seconds for baseline establishment. Sensors with loaded IgGs were exposed to 100 nM antigen (human TIGIT-Fc, human TIGIT-His or cyno TIGIT-Fc) for 5 minutes, afterwards they were transferred to assay buffer for 5 min for off-rate measurement. Kinetics were analyzed using the 1:1 binding model.

[13] = biological target: T3, mouse TIGIT expressed on cells; assay: flow cytometry, competition with mouse CD155-His-Fc (4 ug/ml) on Jurkat-mTIGIT, FIG. 15A
Protocol: Cells were washed once, and stained with PE-anti-His antibody (Biolegend, 362603) during 30 min at 4° C.

[14] = biological target: T1, human TIGIT expressed on cells; assay: flow cytometry, AF647-32959 on Jurkat-hTIGIT; competitor 31282 at 0.16 nM
Protocol: (§5) Geometric mean fluorescence intensity was analysed using LSR BD Fortessa. Cell binding was recorded as the median florescence intensity of AF647.

[15] = biological target: T1, human TIGIT expressed on cells; assay: flow cytometry, AF647-32959 on Jurkat-hTIGIT; competitor 31282 at 8 nM
Protocol: as §5

[16] = biological target: T1, human TIGIT expressed on cells; assay: flow cytometry, AF647-32959 on Jurkat-hTIGIT; competitor 31282 at 0 nM
Protocol: as §5

[17] = biological target: T1, human TIGIT expressed on cells; assay: flow cytometry, cell binding Jurkat human TIGIT
[18] = biological target: T1, human TIGIT expressed on cells; assay: flow cytometry, AF647-32959 on Jurkat-hTIGIT; competitor 31282 at 0.08 nM
Protocol: as §5

[19] = biological target: T1, human TIGIT expressed on cells; assay: flow cytometry, AF647-32959 on Jurkat-hTIGIT; competitor 31282 at 0.8 nM
Protocol: as §5

[20] = biological target: T2, recombinant human TIGIT protein …; assay: Biacore T200, IgG captured by anti-human Fc, antigen in solution, steady state model
Protocol: as §1, with “The obtained sensorgrams were fitted globally to a 1:1 model (assuming the same kinetic values for all applied concentrations).” left out

FON (Fold Over Negative) [9]: 80 fold
Induction over Isotype control (fold change), luciferase, Jurkat-hTIGIT + CHO-TCR-CD155, 133 nM [10]: 0.96 fold
FON (Fold Over Negative) [11]: 463 fold
IFNg production by mouse OT-I CD8+ T cells co-cultured with OVA-pulsed PanO2 cells (express CD155), 133 nM [12]: ~2 fold
Kd (Human TIGIT-Fc): 1490 pM
IC50 [13]: 2300 pM
B2: anti-TIGIT antibody clone 26493 (IgG) (antibody, V domains shown)
VH: EVQLVESGGGLVQPGRSLRLSCAASGFTFGDYAMHWVRQAPGKGLEWVSGITWNSGSIGYADSVKGRFTISRDNAKNSLYLQMNSLRAEDTALYYCAKPVPKSRGLDVWGQGTMVTVSS
VL: DIQLTQSPSSVSASVGDRVTITCRASQGISSWLAWYQQKPGKAPKLLIYGASSLQSGVPSRFSGSGSGTDFTLTISSLQPEDFATYYCQQAFYLPWTFGGGTKVEIK
notes: parent clone; also called surrogate anti-TIGIT antagonistic antibody

EC50 [14]: 370 pM
EC50 [15]: 390 pM
EC50 [16]: 220 pM
FON (Fold Over Negative) [17]: 588 fold
EC50 [18]: 330 pM
EC50 [19]: 490 pM
B3: anti-TIGIT antibody clone 32959 (human IgG1) (antibody, V domains shown)
VH: QVQLVQSGAEVKKPGSSVKVSCKASGGTFSSYLISWVRQAPGQGLEWMGGIYPIFATANYAQKFQGRVTITADESTSTAYMELSSLRSEDTAVYYCAREAQSYRVPFDIWGQGTMVTVSS
VL: EIVMTQSPATLSVSPGERATLSCRASQSVSSNLAWYQQKPGQAPRLLIYGASTRATGIPARFSGSGSGTEFTLTISSLQSEDFAVYYCQQYAIWPPFTFGGGTKVEIK
modifications: The antibody was directly coupled to the dye AF647 in Example 24; the attachment sites are not stated.
notes: human IgG1 made in HEK cells

Further lines, the binder ahead of its results:

B1: 4.1D3.Q1E (comparative anti-TIGIT antibody, human IgG1) (antibody, V domains shown)
VH: EVQLQQSGPGLVKPSQTLSLTCAISGDSVSSNSAAWNWIRQSPSRGLEWLGKTYYRFKWYSDYAVSVKGRITINPDTSKNQFSLQLNSVTPEDTAVFYCTRESTTYDLLAGPFDYWGQGTLVTVSS
VL: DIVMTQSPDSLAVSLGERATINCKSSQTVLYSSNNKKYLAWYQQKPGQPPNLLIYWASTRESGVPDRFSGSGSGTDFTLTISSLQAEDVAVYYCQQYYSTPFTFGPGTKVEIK
notes: from WO2017/053748; made in HEK cells as human IgG1
EC50 (nM), luciferase, Jurkat-hTIGIT [1]: 10.3 nM
Fold change of EC50 over EC50 of best clone (31282_up) [1]: 3.1 fold
Induction over Isotype control (fold change), luciferase, Jurkat-hTIGIT + CD155 aAPC/CHO-K1 [1]: 5.8 fold
Kd [2]: 44 pM
koff [2]: 4.72e-05 s⁻¹
Fold change of IC50 over IC50 of best clone (31282_up) [3]: 1.9 fold
IC50 [3]: 70 pM
EC50 [4]: 1150 pM
Fold change of EC50 over EC50 of best clone (31282) [4]: 9.5 fold
EC50 [5]: 1880 pM
Fold change of EC50 over EC50 of best clone (31282_wu) [5]: 9.7 fold
EC50 [6]: 270 pM
Fold change of EC50 over EC50 of best clone (31282_wu) [6]: 2.5 fold
EC50 (nM), IFNg, human primary CD8+ T cells [7]: 1.43 nM
Fold change of EC50 over EC50 of best clone (31282_wu) [7]: 10.8 fold
Induction over isotype control (fold change), IFNg, human primary CD8+ T cells + CD155 aAPC/CHO-K1 [7]: 2.9 fold
EC50 [8]: 267 pM

B4: 313M32 (comparative anti-TIGIT antibody, human IgG1) (antibody, V domains shown)
VH: QVQLQESGPGLVKPSETLSLTCAVSGYSITSDYAWNWIRQPPGKGLEWIGYISYSGSTSYNPSLRSRVTISRDTSKNQFFLKLSSVTAADTAVYYCARRQVGLGFAYWGQGTLVTVSS
VL: DIQMTQSPSSLSASVGDRVTITCKASQDVSTAVAWYQQKPGKAPKLLIYSASYRYTGVPSRFSGSGSGTDFTFTISSLQPEDIATYYCQQHYSTPWTFG
notes: from WO2016/191643; made in HEK cells as human IgG1; the VL as printed ends at ...TFG (FR4 not complete); also called 313M2
Kd [20]: 10100 pM
Fold change of IC50 over IC50 of best clone (31282_up) [3]: 16.7 fold
IC50 [3]: 650 pM
EC50 [4]: 1000 pM
Fold change of EC50 over EC50 of best clone (31282) [4]: 8.3 fold
EC50 [5]: 1450 pM
Fold change of EC50 over EC50 of best clone (31282_wu) [5]: 7.5 fold
EC50 [6]: 440 pM
Fold change of EC50 over EC50 of best clone (31282_wu) [6]: 4.2 fold
EC50 [8]: 445 pM
